In series [1] the target is T1, RaaS (UniProt O86312).
T1 sequence: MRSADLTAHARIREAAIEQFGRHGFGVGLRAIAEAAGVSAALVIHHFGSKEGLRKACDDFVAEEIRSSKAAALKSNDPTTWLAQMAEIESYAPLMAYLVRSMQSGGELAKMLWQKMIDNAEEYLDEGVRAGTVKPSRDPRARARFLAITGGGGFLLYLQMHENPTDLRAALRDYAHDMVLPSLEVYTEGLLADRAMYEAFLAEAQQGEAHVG
The series can be described thus: fluorescence anisotropy. Conditions: anisotropy: 50 mM Tris-HCl pH 8.5, 150 mM NaCl, temperature not stated. (Fluorescence polarisation rises when a labelled molecule tumbles more slowly, as on binding a larger partner.)

The target in series [2] is T2, RaaS (UniProt O86312 1-212).
T2 sequence: T1 sequence
Briefly: EMSA; 20 nM DNA, 170 nM RaaS; […]; anisotropy: 50 mM Tris-HCl pH 8.5, 150 mM NaCl; temperature not stated. Conditions: protein: recombinant; tags: 6xHis (pET15-Tev); chain copies: 2; label: 32P; 5' overhang 3 nt on both strands. Background: Mobility shift assays separate free from complexed probe on a gel.

From article PMC3993263 come the findings set out here.

For orientation: Kd means the equilibrium constant for the complex coming apart. Turning to “labeled RaaS-site oligonucleotide (anisotropy)”, the Kd in the series with RaaS [1] stood at 31 nM.

B1: M5 (dsDNA)
DNA 1: GGGATGAACGTACGAAAAATATCCTGAACATGCGTTCAG
DNA 2: GGGCTGAACGCATGTTCAGGATATTTTTCGTACGTTCAT
Take B1: the binding result with RaaS [2] is “no binding”.

B2: M6 (single repeat) (dsDNA)
DNA 1: GGGTGAACATGCGTTCA
DNA 2: GGGTGAACGCATGTTCA
B2: in the series with RaaS [2], the binding result is given as “no binding”.
